{"source": "patent US7193055B2", "about": "“Compaction assay for assessment of respiratory disease therapy” (Genentech, Inc., priority 1992, dated 2007)", "molecules": {"B1": {"name": "rhDNase: recombinant human DNase I cloned and expressed at Genentech; used as 4 mg/ml solution in 1 mM CaCl2, 150 mM NaCl, pH 7.4 (protein, UniProt P24855 23-282, looked up)", "Deoxyribonuclease-1": "LKIAAFNIQTFGETKMSNATLVSYIVQILSRYDIALVQEVRDSHLTAVGKLLDNLNQDAPDTYHYVVSEPLGRNSYKERYLFVYRPDQVSAVDSYYYDDGCEPCGNDTFNREPAIVRFFSRFTEVREFAIVPLHAAPGDAVAEIDALYDVYLDVQEKWGLEDVMLMGDFNAGCSYVRPSQWSSIRLWTSPTFQWLIPDSADTTATPTHCAYDRIVVAGMLLRGAVVPDSALPFNFQAAYGLSDQLAQAISDHYPVEVMLK"}}, "key": {"purulent CF sputum [1]": {"tested_on": "purulent CF sputum", "experiment": "Dynamic cone and plate rheometry of sputum", "set-up": "species or system human", "conditions": "representative sputum sample, over the range of strain tested, FIG. 4", "description": "Sputum rheological measurements were made at ambient temperature using the Rheometrics Fluid Rheometer (RFR-7800, Rheometrics Inc. Piscataway, N.J.) with a 0.02 radian, 25 mm radius cone and plate tool. Approximately 0.8 ml sputum was placed on the plate with 25 μL of diluent or rhDNase layered onto the top of the sputum. The cone was lowered onto the sample while the bottom plate was slowly rotated at. 5 rpm to evenly distribute the sample across the gap between the cone and plate. Drying at the sample edge was prevented by pipeting 0.1 poise silicon oil (Dow Chemical) onto the exposed edge of the cone. Rotation of the plate was stopped for five minutes to allow the sample to relax. Each preparation was tested at a deformation rate of 10 radians/sec and the percent strain was varied from 10% to 200% in 10% increments. Percent strain is defined as 100 times the distance of the shearing motion divided by the space between the cone and plate of the viscometer. The second strain value, 20% strain, was used for the comparisons between samples and treatments, being the lowest possible strain for accurate measurement. Instrument start-up frequently compromises the first data point and higher strains can damage network structures (Ferry, J Viscoelastic Properties of Polymers. 3rd ed. John Wiley and Sons, Inc. New York pg. 245-[1980]) resulting in artifacts and irreproducible data."}, "[2]": {"conditions": "1 and 4 mg/mL rhDNase solutions, aerosolized (Aitken et al., Hubbard et al.); cited from earlier work"}, "[3]": {"conditions": "catalytic amounts of rhDNase (Shak et al.); cited from earlier work"}, "DNA in sputum samples [4]": {"tested_on": "DNA in sputum samples", "experiment": "Agarose gel electrophoresis of DNA length in sputum samples", "type": "biochemical, human", "set-up": "dose or concentration left out as unconfirmed", "conditions": "all six sputum samples; rhDNase, 20 minutes at 25° C.", "description": "The length of the DNA in sputum samples was determined qualitatively by agarose gel electrophoresis as described by Shak et al., Supra. The effect of freezing on sputum DNA length was studied by electrophoresing samples with and without one cycle of freezing at −70° C. Samples were diluted four-fold in a buffer containing 100 mM NaCl, 5 mM EDTA, 0.5% SDS, 100 μg/ml proteinase K (Sigma), 50 mM Tris, pH 8.0, and incubated for three hours at 37° C. with occasional mixing. Samples were then electrophoresed in 0.5% agarose gels and stained with ethidium bromide by standard procedures (Sambrook, et al., Molecular Cloning: A Laboratory Manual, 2nd ed. Cold Spring Harbor Laboratory Press [1989]). A 1 Kb DNA ladder having 12 major bands between 500 bp to 12 Kb (Gibco/BRL 5615SA) was used as the molecular weight standard."}, "DNA in sputum samples [5]": {"tested_on": "DNA in sputum samples", "experiment": "Total DNA in pellet and supernatant fractions after compaction (DABA assay)", "type": "biochemical, human", "conditions": "all six samples, FIG. 6", "description": "Sputum sample DNA content was determined by a modification of the diaminobenzoic acid (DABA) assay developed by Kissane and Robins (J Biol Chem 233: 184–188 (1958]) which quantitates total DNA concentration independent of length. Previously frozen sputum aliquants were diluted tenfold with the assay diluent (25 mM HEPES, 1 mg/ml bovine serum albumin, 4 mM CaCl^2, 4 mM MgCl^2, 0.05% polysorbate 20, and 0.01% thimerasol, at pH 7.5) and incubated at 60° C. for one hour. Diluted specimens (50 μL) were pipeted into microtiter plate wells and 50 μL of a 20% 3,5-diaminobenzoic acid hydrochloride (DABA) solution was added after which the plates were tightly sealed. […] A Cytofluor (Millipore Corp.) microtiter plate flurometer (with 390 nm excitation and 530 nm emission filters) was used to read the plates. […] The coefficient of variation for the assay was determined to be <6%.\nApproximately 100 μL of sputum was transferred into a tared Eppendorf microcentrifuge tube with a positive displacement pipet (Gilson Microman®, equipped with a stainless steel shaft and plastic plunger). […] The total height of the material loaded into the capillary tubes and the pellet height were measured in millimeters. The percent pellet was calculated as the height of the pellet divided by the height of the total material loaded, multiplied by 100."}, "[6]": {"experiment": "rhDNase concentration in sputum after inhalation", "type": "in vivo, human", "conditions": "inhalation of 10 mg rhDNase; sputum collected one hour after inhalation"}, "purulent CF sputum [7]": {"tested_on": "purulent CF sputum", "experiment": "Compaction assay of CF sputum treated in vitro with rhDNase", "type": "biochemical, human", "description": "Approximately 100 μL of sputum was transferred into a tared Eppendorf microcentrifuge tube with a positive displacement pipet (Gilson Microman®, equipped with a stainless steel shaft and plastic plunger). Either rhDNase or control diluent was added as volume equaling 50% of the exact sputum sample weight. Eppendorf tubes were vigorously vortexed for 15 seconds and then incubated for 15 minutes at ambient temperature. Aliquants of the treated sputum were loaded into Kimax-51, 1.5−1.8×90 mm melting point capillary tubes (Kimble Products) using 50 μL Drummond glass capillary tube (Microcaps). The loaded tubes were centrifuged for 20 minutes at 12,000 rpm in a Biofuge A microcentrifuge (Heraeus Sepatech GmbH) equipped with a horizontal, hematocrit-type rotor head (Heraeus Sepatech) and the supernatant/pellet interface subsequently inspected for resolution. On occasion some samples required up to 20 additional minutes to resolve the supernatant-pellet interface clearly. In these cases, all samples loaded on the rotor were centrifuged for the greater duration. The total height of the material loaded into the capillary tubes and the pellet height were measured in millimeters. The percent pellet was calculated as the height of the pellet divided by the height of the total material loaded, multiplied by 100."}}, "note": "Entries after “also recorded” stand apart in the source; their conditions may differ."}
{"molecule": "B1", "values": [{"measurement": "effect on elasticity modulus", "setting": "purulent CF sputum [1]", "result": "more greatly affected"}, {"measurement": "effect on viscosity modulus", "setting": "purulent CF sputum [1]", "result": "reduced measured values of viscosity"}, {"measurement": "pulmonary function in CF patients", "setting": "[2]", "result": "increased pulmonary function; also recorded: improved lung function"}, {"measurement": "viscosity of purulent cystic fibrosis sputum", "setting": "[3]", "result": "greatly reduced the viscosity"}, {"measurement": "DNA size after hydrolysis (complete hydrolysis)", "setting": "DNA in sputum samples [4]", "result": "less than 500 base pairs"}, {"measurement": "distribution of total DNA between pellet and supernatant following compaction", "setting": "DNA in sputum samples [5]", "result": "redistribution of total DNA from the pellet to the supernatant"}, {"measurement": "concentrations of rhDNase in sputum", "setting": "[6]", "result": "1000 to 20000", "unit": "ng/mL"}, {"measurement": "concentration above which rhDNase is maximally effective (fit of dose-response curve)", "setting": "purulent CF sputum [7]; CF sputum sample, FIG. 7", "result": "above 1 μg/ml"}, {"measurement": "concentration below which rhDNase is minimally effective (fit of dose-response curve)", "setting": "purulent CF sputum [7]; CF sputum sample, FIG. 7", "result": "below 0.1 μg/ml"}, {"measurement": "minimum in vitro rhDNase concentration showing activity in the compaction assay", "setting": "purulent CF sputum [7]; in vitro, sputum", "result": 1, "unit": "μg rhDNase/mL sputum"}]}
